Where a chain is given by its changes, count along the chain named.
T1: human GIP receptor (human) (UniProt P48546)
T1 sequence (looked up): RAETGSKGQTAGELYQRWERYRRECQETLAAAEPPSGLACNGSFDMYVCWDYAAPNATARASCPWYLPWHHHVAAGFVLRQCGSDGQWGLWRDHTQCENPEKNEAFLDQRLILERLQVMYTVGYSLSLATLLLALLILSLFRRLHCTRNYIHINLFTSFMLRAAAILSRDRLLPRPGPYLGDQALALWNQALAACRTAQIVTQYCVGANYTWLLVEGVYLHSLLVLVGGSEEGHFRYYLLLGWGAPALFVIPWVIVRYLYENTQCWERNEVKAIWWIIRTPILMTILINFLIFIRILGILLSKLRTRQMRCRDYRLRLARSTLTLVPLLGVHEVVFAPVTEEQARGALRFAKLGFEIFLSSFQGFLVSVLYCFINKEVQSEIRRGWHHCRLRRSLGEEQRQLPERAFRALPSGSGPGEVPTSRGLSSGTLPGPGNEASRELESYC

B1: Example 401 (peptide)
chain: YXQGTXTSDXXIXLDXKAQXXFIEXLIEGGPSSGEPPPSEG
modifications: synthetic construct; SITE 2: note = 2-Aminoisobutyric Acid; SITE 6: note = alpha-methyl-2-fluoro-L-phenylalanine; SITE 10: note = 3-(4-Pyridyl)-L-alanine; SITE 11: note = alpha-methyl-L-serine; SITE 13: note = alpha-methyl-leucine; SITE 16: note = L-ornithine; SITE 17: note = Lysine is chemically mo
B2: Example 403 (peptide)
chain: B1 chain with X10Y, I27E, S39E
modifications: synthetic construct; SITE 2: note = 2-Aminoisobutyric Acid; SITE 6: note = alpha-methyl-2-fluoro-L-phenylalanine; SITE 11: note = alpha-methyl-L-serine; SITE 13: note = alpha-methyl-leucine; SITE 16: note = L-ornithine; SITE 17: note = Lysine is chemically modified through conjugation of the epsilon
B3: Example 390 (peptide)
chain: YXQGTXTSDYXSLLDXKAQXXFIEXLLEGGPSSGEPPPE
modifications: synthetic construct; SITE 2: note = 2-Aminoisobutyric Acid; SITE 6: note = alpha-methyl-L-phenylalanine; SITE 11: note = alpha-methyl-L-serine; SITE 16: note = L-ornithine; SITE 17: note = Lysine is chemically modified through conjugation of the epsilon-amino group of the Lysine side chain with (2-[
B4: Example 395 (peptide)
chain: YXQGTXTSDYSIXLDKKAQXAFIEYLEEGGPSSGAPPPSEG
modifications: synthetic construct; SITE 2: note = 2-Aminoisobutyric Acid; SITE 6: note = alpha-methyl-L-phenylalanine; SITE 13: note = alpha-methyl-leucine; SITE 17: note = Lysine is chemically modified through conjugation of the epsilon-amino group of the Lysine side chain with (2-[2-(2-Amino-ethoxy)-ethoxy]-ace)
B5: Example 398 (peptide)
chain: B4 chain with X13L
modifications: not fully specified; synthetic construct; SITE 2: note = 2-Aminoisobutyric Acid; SITE 6: note = alpha-methyl-2-fluoro-L-phenylalanine; SITE 17: note = Lysine is chemically modified through conjugation of the epsilon-amino group of the Lysine side chain with (2-[2-(2-Amino-ethoxy)-ethoxy]-acetyl)-(gamma-Glu)-CO-(CH2) 16-
B6: Example 404 (peptide)
chain: B4 chain with K16X, E27L
modifications: synthetic construct; SITE 2: note = 2-Aminoisobutyric Acid; SITE 6: note = alpha-methyl-2-fluoro-L-phenylalanine; SITE 13: note = alpha-methyl-leucine; SITE 16: note = L-ornithine; SITE 17: note = Lysine is chemically modified through conjugation of the epsilon-amino group of the Lysine side chain w
B7: Example 399 (peptide)
chain: B4 chain with X13L, S39E
modifications: synthetic construct; SITE 2: note = 2-Aminoisobutyric Acid; SITE 6: note = alpha-methyl-2-fluoro-L-phenylalanine; SITE 17: note = Lysine is chemically modified through conjugation of the epsilon-amino group of the Lysine side chain with (2-[2-(2-Amino-ethoxy)-ethoxy]-acetyl)-(gamma-Glu)-CO-(CH2) 16-
B8: Example 35 (peptide)
chain: YXQGTFTSDFSKXLDKKAQXAFIEYLLEGGPSSGEPPPEEG
modifications: not fully specified; Aib, αMeL; acylated Lys; C-terminal amide; synthetic construct; SITE 2: note = 2-Aminoisobutyric Acid; SITE 13: note = alpha-methyl-leucine; SITE 17: note = Lysine is chemically modified through conjugation of the epsilon-amino group of the Lysine side chain with (2-[2-(2-Amino-ethoxy)-ethoxy]-acetyl)-(gamma-Glu)-CO-(CH2) 18-CO2H; SITE 20: n
B9: Example 36 (peptide)
chain: B8 chain with E39T
modifications: C-terminal amide; acylated lysine; synthetic construct; SITE 2: note = 2-Aminoisobutyric Acid; SITE 13: note = alpha-methyl-leucine; SITE 17: note = Lysine is chemically modified through conjugation of the epsilon-amino group of the Lysine side chain with (2-[2-(2-Amino-ethoxy)-ethoxy]-acetyl)-(gamma-Glu)-CO-(CH2) 18-CO2H; SITE 20: n
B10: Example 384 (peptide)
chain: YXQGTXTSDYXIXLDXKAQXXFIEYLLEGGPSSGAPPPS
modifications: synthetic construct; SITE 2: note = 2-Aminoisobutyric Acid; SITE 6: note = alpha-methyl-2-fluoro-L-phenylalanine; SITE 11: note = alpha-methyl-L-serine; SITE 13: note = alpha-methyl-leucine; SITE 16: note = L-ornithine; SITE 17: note = Lysine is chemically modified through conjugation of the epsilon
B11: Example 385 (peptide)
chain: B10 chain with X11S, X13L, X16K, X21A
modifications: not fully specified; synthetic construct; SITE 2: note = 2-Aminoisobutyric Acid; SITE 6: note = alpha-methyl-2-fluoro-L-phenylalanine; SITE 17: note = Lysine is chemically modified through conjugation of the epsilon-amino group of the Lysine side chain with (2-[2-(2-Amino-ethoxy)-ethoxy]-acetyl)2-(gamma-Glu)-CO-(CH2 )18
B12: Example 391 (peptide)
chain: B10 chain with A35E, S39E
modifications: synthetic construct; SITE 2: note = 2-Aminoisobutyric Acid; SITE 6: note = alpha-methyl-L-phenylalanine; SITE 11: note = alpha-methyl-L-serine; SITE 13: note = alpha-methyl-leucine; SITE 16: note = L-ornithine; SITE 17: note = Lysine is chemically modified through conjugation of the epsilon-amino gr
B13: Example 402 (peptide)
chain: B3 chain with S12I, L13X, L27E
modifications: synthetic construct; SITE 2: note = 2-Aminoisobutyric Acid; SITE 6: note = alpha-methyl-2-fluoro-L-phenylalanine; SITE 11: note = alpha-methyl-L-serine; SITE 13: note = alpha-methyl-leucine; SITE 16: note = L-ornithine; SITE 17: note = Lysine is chemically modified through conjugation of the epsilon
B14: Example 393 (peptide)
chain: B10 chain with X13L, X16K, X21A, L27E
modifications: synthetic construct; SITE 2: note = 2-Aminoisobutyric Acid; SITE 6: note = alpha-methyl-L-phenylalanine; SITE 11: note = alpha-methyl-L-serine; SITE 17: note = Lysine is chemically modified through conjugation of the epsilon-amino group of the Lysine side chain with (2-[2-(2-Amino-ethoxy)-ethoxy]-ac)
B15: Example 397 (peptide)
chain: B10 chain with X11S, X21A, L27E, S39E
modifications: not fully specified; synthetic construct; SITE 2: note = 2-Aminoisobutyric Acid; SITE 6: note = alpha-methyl-L-phenylalanine; SITE 13: note = alpha-methyl-leucine; SITE 16: note = L-ornithine; SITE 17: note = Lysine is chemically modified through conjugation of the epsilon-amino group of the Lysine side chain with (2-[2)
B16: Example 389 (peptide)
chain: B3 chain with L13X
modifications: synthetic construct; SITE 2: note = 2-Aminoisobutyric Acid; SITE 6: note = alpha-methyl-L-phenylalanine; SITE 11: note = alpha-methyl-L-serine; SITE 13: note = alpha-methyl-leucine; SITE 16: note = L-ornithine; SITE 17: note = Lysine is chemically modified through conjugation of the epsilon-amino gr
B17: Example 394 (peptide)
chain: B10 chain with X11S, X16K, X21A, L27E
modifications: synthetic construct; SITE 2: note = 2-Aminoisobutyric Acid; SITE 6: note = alpha-methyl-L-phenylalanine; SITE 13: note = alpha-methyl-leucine; SITE 17: note = Lysine is chemically modified through conjugation of the epsilon-amino group of the Lysine side chain with (2-[2-(2-Amino-ethoxy)-ethoxy]-ace)
B18: Example 386 (peptide)
chain: YXQGTXTSDYSILLDKKAQXAFIEYLLEGGPSSGAPPPE
modifications: not fully specified; synthetic construct; SITE 2: note = 2-Aminoisobutyric Acid; SITE 6: note = alpha-methyl-2-fluoro-L-phenylalanine; SITE 17: note = Lysine is chemically modified through conjugation of the epsilon-amino group of the Lysine side chain with (2-[2-(2-Amino-ethoxy)-ethoxy]-acetyl)2-(gamma-Glu)-CO-(CH2 )18
B19: Example 392 (peptide)
chain: B18 chain with L27E, E39S
modifications: synthetic construct; SITE 2: note = 2-Aminoisobutyric Acid; SITE 6: note = alpha-methyl-L-phenylalanine; SITE 17: note = Lysine is chemically modified through conjugation of the epsilon-amino group of the Lysine side chain with (2-[2-(2-Amino-ethoxy)-ethoxy]-acetyl)-(gamma-Glu)-CO-(CH2) 16-CO2H; SIT
B20: Example 387 (peptide)
chain: B18 chain with L27E, E39S
modifications: not fully specified; synthetic construct; SITE 2: note = 2-Aminoisobutyric Acid; SITE 6: note = alpha-methyl-2-fluoro-L-phenylalanine; SITE 17: note = Lysine is chemically modified through conjugation of the epsilon-amino group of the Lysine side chain with (2-[2-(2-Amino-ethoxy)-ethoxy]-acetyl)-(gamma-Glu)-CO-(CH2) 16-
B21: Example 388 (peptide)
chain: B18 chain with L27E
modifications: not fully specified; synthetic construct; SITE 2: note = 2-Aminoisobutyric Acid; SITE 6: note = alpha-methyl-2-fluoro-L-phenylalanine; SITE 17: note = Lysine is chemically modified through conjugation of the epsilon-amino group of the Lysine side chain with (2-[2-(2-Amino-ethoxy)-ethoxy]-acetyl)-(gamma-Glu)-CO-(CH2) 16-
B22: Example 400 (peptide)
chain: B18 chain with L13X, L27E
modifications: synthetic construct; SITE 2: note = 2-Aminoisobutyric Acid; SITE 6: note = alpha-methyl-2-fluoro-L-phenylalanine; SITE 13: note = alpha-methyl-leucine; SITE 17: note = Lysine is chemically modified through conjugation of the epsilon-amino group of the Lysine side chain with (2-[2-(2-Amino-ethoxy)-et)
B23: Example 396 (peptide)
chain: B18 chain with L13X, L27E
modifications: synthetic construct; SITE 2: note = 2-Aminoisobutyric Acid; SITE 6: note = alpha-methyl-L-phenylalanine; SITE 13: note = alpha-methyl-leucine; SITE 17: note = Lysine is chemically modified through conjugation of the epsilon-amino group of the Lysine side chain with (2-[2-(2-Amino-ethoxy)-ethoxy]-ace)

Legend:
Assay in all cases: cell-based or functional assay
[1] = target: T1, human GIP receptor (human)
[2] = target: hGLP-1R (Homo sapiens, UniProt P43220)
Chain of hGLP-1R (P43220 24-463): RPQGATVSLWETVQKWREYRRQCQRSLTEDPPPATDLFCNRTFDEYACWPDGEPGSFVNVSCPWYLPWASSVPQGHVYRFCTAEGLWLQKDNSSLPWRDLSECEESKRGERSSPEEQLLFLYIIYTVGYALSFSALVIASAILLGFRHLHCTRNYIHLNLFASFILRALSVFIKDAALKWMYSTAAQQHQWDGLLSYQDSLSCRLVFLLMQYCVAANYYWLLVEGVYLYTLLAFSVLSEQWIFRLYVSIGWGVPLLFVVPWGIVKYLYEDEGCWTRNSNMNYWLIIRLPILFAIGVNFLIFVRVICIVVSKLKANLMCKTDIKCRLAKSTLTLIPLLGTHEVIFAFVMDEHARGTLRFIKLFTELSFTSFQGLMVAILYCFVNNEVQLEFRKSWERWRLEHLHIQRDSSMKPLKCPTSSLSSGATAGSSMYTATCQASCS

[3] = target: human glucagon receptor (human) (UniProt P47871)
Chain of human glucagon receptor (human) (P47871 26-477): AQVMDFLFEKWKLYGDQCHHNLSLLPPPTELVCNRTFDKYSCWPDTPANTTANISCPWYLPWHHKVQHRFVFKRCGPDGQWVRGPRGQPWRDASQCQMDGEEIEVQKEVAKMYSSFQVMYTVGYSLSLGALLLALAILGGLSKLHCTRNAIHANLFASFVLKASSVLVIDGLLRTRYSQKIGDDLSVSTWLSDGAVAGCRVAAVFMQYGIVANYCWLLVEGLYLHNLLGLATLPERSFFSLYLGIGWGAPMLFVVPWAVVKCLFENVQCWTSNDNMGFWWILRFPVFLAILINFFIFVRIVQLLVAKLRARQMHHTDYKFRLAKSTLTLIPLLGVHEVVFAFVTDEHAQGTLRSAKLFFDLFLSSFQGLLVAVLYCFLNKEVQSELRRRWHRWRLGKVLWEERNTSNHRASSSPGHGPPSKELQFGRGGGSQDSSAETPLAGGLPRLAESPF

Binder | Relative cAMP EC50 [1] [nM] | cAMP Rel EC50, nM (1% HSA) [1] [nM] | Relative cAMP EC50 [2] [nM] | cAMP Rel EC50, nM (1% HSA) [2] [nM] | Relative cAMP EC50 [3] [nM] | cAMP Rel EC50, nM (1% HSA) [3] [nM] | cAMP Rel EC50 (in the presence of 1% HSA) [1] [nM] | cAMP Rel EC50 (in the presence of 1% HSA) [2] [nM] | cAMP Rel EC50 (in the presence of 1% HSA) [3] [nM]
B1 | 0.0183 | 1.71 | 0.213 | 12 | 1.99 | 111 |  |  | 
B2 | 0.0827 | 36.9 | 0.396 | 70 | 1.59 | 527 |  |  | 
B3 | 0.122 | 37.8 | 0.134 | 19.6 | 3.08 | 549 |  |  | 
B4 | 0.0248 | 6.69 | 0.349 | 34.7 | 5.55 | 1190 |  |  | 
B5 | 0.0318 | 12.4 | 0.186 | 42.2 | 2.16 | 375 |  |  | 
B6 | 0.0102 | 2.03 | 0.217 | 32.2 | 4.1 | 735 |  |  | 
B7 | 0.0413 | 19.6 | 0.302 | 42.8 | 1.51 | 560 |  |  | 
B8 | 0.55 |  | 3.05 |  | 4.32 |  | 194 | 1130 | 1390
B9 | 0.482 |  | 3.57 |  | 4.32 |  | 170 | 1360 | 1330
B10 | 0.0152 | 3.63 | 0.133 | 19.3 | 5.77 | 1730 |  |  | 
B11 | 0.0141 | 4.03 | 0.235 | 86.1 | 1 | 700 |  |  | 
B12 | 0.0298 | 11.5 | 0.199 | 34.4 | 3.04 | 808 |  |  | 
B13 | 0.123 | 44.9 | 0.725 | 86.6 | 5.66 | 1030 |  |  | 
B14 | 0.0458 | 12.4 | 0.211 | 29.6 | 0.947 | 151 |  |  | 
B15 | 0.0247 | 10.1 | 0.2 | 34.9 | 5.22 | 1110 |  |  | 
B16 | 0.0354 | 18.3 | 0.134 | 18.9 | 4.03 | 889 |  |  | 
B17 |  | 7.22 |  | 33.2 |  | 1090 |  |  | 
B18 | 0.0156 | 5.62 | 0.278 | 98.6 | 1.7 | 734 |  |  | 
B19 | 0.0571 | 28.7 | 0.253 | 41.5 | 3.02 | 611 |  |  | 
B20 | 0.0276 | 5.64 | 0.255 | 26.5 | 2.14 | 184 |  |  | 
B21 | 0.0462 | 14.1 | 0.373 | 52.5 | 2.15 | 603 |  |  | 
B22 | 0.0158 | 3.86 | 0.253 | 29.1 | 2.53 | 265 |  |  | 
B23 | 0.024 | 9.5 | 0.293 | 38.2 | 4.99 | 468 |  |  | 
